Entries after “also recorded” stand apart in the source; their conditions may differ. Ends that are not written are not given here.
Tests used:
RAGE = target: T1, RAGE (Mus musculus, UniProt Q62151); experiment: Ang II-induced ICAM-1 gene expression in murine SVEC; type: cell-based; details: murine SVEC endogenously replete in RAGE; transfected constructs; 1 μM Ang II; FIG. 12A, 12B, 12D
T1 construct: in murine SVEC that are endogenously replete in RAGE expression; host or cells: Svec4-10 mouse endothelial cells
Experimental: To explore the potential for RAGE constructs to inhibit transactivation of endogenous RAGE, additional experiments were conducted in immortalized mouse endothelial cells (Svec4-10, ATCC) cultured in 10% FBS/DMEM with 25 mM glucose were used. SVEC were transfected with truncated RAGE constructs using Lipofectamine 2000 (Invitrogen) as per manufacturer's instructions, or treated with RAGE oligopeptides (280 μM). Cells were allowed to recover in media containing 10% FBS for 16 hours prior to treatment with 1 μM Ang II.

[1] = test system: RAGE ligand-independent activation of RAGE by activated AT1R; experiment: Ang II-induced NFκB activation (p65 gene expression, SEAP reporter) in AT1R-CHO cells with RAGE constructs; type: cell-based, human; details: construct expressed in AT1R-CHO cells, no wild-type RAGE
Experimental: (§1) Generation of Transgenic Chinese Hamster Ovary Cells
(§2) 100 ng of AT1R-Rluc8 construct was transfected into CHO cells using Lipofectamine 2000 (Thermo). Stable transfectants were selected using G418. AT1R—CHO were then transiently transfected with RAGE constructs using Lipofectamine 2000 (Invitrogen) and incubated for 16 h. The Homo sapiens AGER transcript variant 1 coding sequence (NM_001136) was synthesised and cloned between the NheI and XbaI sites of pCIneo (Promega) to generate the vector pCIneo-RAGE. This plasmid was then used to generate a library of mutant AGER clones (NP_001127). Primers 1-RAGE-SP-5′ and mCherry-XhoI-NotI-3′ were used to amplify the coding sequence of mCherry from the vector pmCherry-C1. The resultant PCR product was then used as template for a second PCR using primers 2-RAGE-SP-5′ and mCherry-XhoI-NotI-3′. The PCR product generated was digested with NheI and NotI and inserted between the NheI and NotI sites of pCIneo to generate pCIneo-SP-mCherry. The sequence of the insert was confirmed by DNA sequencing (Micromon, Monash University). […]
(§3) Cellular Expression of Pro-Inflammatory Markers and Mediators by Quantitative Real-Time PCR
(§4) After 2 hours of exposure to Ang II (1 μM) or the RAGE ligand, S100A8/A9 (5 ng/ml) cells were placed in Trizol, mRNA extracted and cDNA synthesized. Changes in the gene expression of the NFκB subunit, p65 (RelA) or NFκB-activated target genes (e.g ICAM-1, VCAM-1) were estimated by quantitative real-time RT-PCR, performed using the TaqMan system based on real-time detection of accumulated fluorescence (ABI Prism 7700, Perkin-Elmer Inc, PE Biosystems, Foster City, CA, USA). Gene expression was normalized to 18S mRNA and reported as fold change compared to the level of expression in untreated control mice/cells, which were given an arbitrary value of 1.
Oligopeptides (Cherry-TAT (control), mCherry-TAT-RAGE362-404 and mCherry-S391A-TAT-RAGE362-404 were generated by transformation of the Escherichia coli strain ClearColi BL21 (DE3; Lucigen). A single transformed colony was inoculated into 50 ml 2YT medium containing 100 μg/ml ampicillin and the culture was grown overnight at 37° C. with shaking at 250 rev/min. 10 ml overnight culture was used to inoculate 1 litre 2YT medium containing 100 μg/ml ampicillin and the culture was grown at 37° C. with shaking at 250 rev/min. When the cultures reached an OD600 of 0.8, the temperature was shifted to 15° C. for 30 min after which protein expression was induced by the addition of 1 mM isopropyl β-D-1-thiogalacto-pyranoside (IPTG). Following the addition of IPTG the cultures were grown for ˜16 h at 15° C. with shaking at 250 rev/min. Cells were harvested by centrifugation (3500 g, 4° C., 20 min) and resuspended in ice-cold lysis buffer (50 mM Tris pH 7.4, 300 mM NaCl, 10 mM imidazole and 5 mM beta-mercaptoethanol). The resuspended cells were sonicated and insoluble material was pelleted by centrifugation (13 000 g, 4° C., 30 min). The supernatant was filtered (0.2 μm) and applied onto a gravity-flow column with a 1 ml Ni-NTA Agarose resin bed volume (Qiagen) pre-equilibrated with lysis buffer. After the supernatant was passed over the resin, the column was washed with 100 ml of wash buffer (20 mM imidazole, 50 mM Tris pH 7.4, 150 mM NaCl, 5 mM beta-mercaptoethanol). His-tagged TAT-mCherry and TAT-mCherry-RAGE peptides were eluted from the resin using elution buffer (250 mM imidazole, 50 mM Tris pH 7.4, 150 mM NaCl, 5 mM beta-mercaptoethanol). […]

[2] = test system: primary murine aortic endothelial cells (PMAEC); experiment: Expression of pro-inflammatory markers by real-time RT-PCR in primary murine aortic endothelial cells; type: cell-based, mouse
Experimental: Primary aortic endothelial cells (PMAEC) were isolated from the aortae of (wild-type) C57bl6 mice and AGER KO mice and cultured in Dulbecco's modified Eagle's medium (DMEM)/F12 endothelial cell growth supplement (ECGS) supplemented media. Chinese Hamster Ovary (CHO) cells were cultured using F12 media (10% FCS with 2 mM glutamine). Human microvascular endothelial cells (HMEC) were cultured in MCDB 131 medium (10% FCS with 10 mM glutamine, EGF and hydrocortisone).
as §3, §4
Selective Silencing of Gene Expression Using siRNA
PMAEC from C57b/6 mice were also transfected with siRNA to RAGE (2 nM) Ambion, ID:s62119), p65 (RelA) (10 nM; Ambion, ID:s72857), MyD88 (10 nM; Ambion. ID:s201719), PKCζ (10 nM; Ambion, ID:s71716), IQGAP-1, Ambion, ID:s78119), Diaph1 (10 nM; sense5′-[…], antisense 3′-[…]; Invitrogen) or scrambled control #1 (2 nM or 10 nM; Ambion) using Lipofectamine RNAiMAX (Invitrogen) as per manufacturer's instructions. Cells were allowed to recover in media containing 10% FBS for 16 hours prior to treatment with 1 μM Ang II or 5 ng/ml of the RAGE ligand, S100A8/A9, as a signalling control.

[3] = test system: RAGE ligand-dependent activation of RAGE; experiment: S100A8/A9-induced NFκB activation (p65 gene expression) in CHO cells expressing RAGE constructs; type: cell-based, human; details: AT1R-CHO cells also expressing full length RAGE
Experimental: as §1, §2, §3, §4
To measure the induction of NFκB activity by 1 μM Ang II, or 5 ng/ml of the RAGE-ligand S100A8/A9 as a signalling control, AT1R—CHO cells were transfected with 0.4 μg of plasmids encoding NFκB-SEAP or β-galactosidase (β-Gal) using Lipofectamine 2000 (Invitrogen) as per manufacturer's instructions. After 24 hours, cells transfected with each plasmid combination were then treated with Ang II (1 μM) or left untreated and incubated for 4 hours before cell supernatants and cell lysates were collected. Cell supernatants were analysed using a chemiluminescent SEAP reporter gene assay (Roche Applied Science) to detect SEAP production after treatment. To control for transfection efficiency, cell lysates were assayed for β-Gal using a commercially available kit (Promega).

T1 sequence (Q62151 23-402): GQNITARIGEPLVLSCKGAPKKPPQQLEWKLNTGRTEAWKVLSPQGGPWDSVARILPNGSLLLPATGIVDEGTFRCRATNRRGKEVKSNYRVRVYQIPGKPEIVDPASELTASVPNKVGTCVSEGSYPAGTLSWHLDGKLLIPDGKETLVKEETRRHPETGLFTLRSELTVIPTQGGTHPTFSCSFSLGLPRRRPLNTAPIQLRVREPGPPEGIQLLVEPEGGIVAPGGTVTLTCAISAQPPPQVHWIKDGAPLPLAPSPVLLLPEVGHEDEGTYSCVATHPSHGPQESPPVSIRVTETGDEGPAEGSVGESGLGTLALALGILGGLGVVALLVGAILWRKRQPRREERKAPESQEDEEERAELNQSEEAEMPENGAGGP

Substance	induction of ICAM-1 gene expression by Ang II (RAGE)	other results
E380A-RAGE370-390: alanine mutant of RAGE370-390 (GEERKAPENQAEEEERAELNQ; cytosolic tail peptide; UniProt Q15109 370-390, looked up, variant E380A)	continue to inhibit	
E382A-RAGE370-390: alanine mutant of RAGE370-390 (GEERKAPENQEEAEERAELNQ; cytosolic tail peptide; UniProt Q15109 370-390, looked up, variant E382A)	continue to inhibit	
E384A-RAGE370-390: alanine mutant of RAGE370-390 (GEERKAPENQEEEEARAELNQ; cytosolic tail peptide; UniProt Q15109 370-390, looked up, variant E384A)	continue to inhibit	
Q379A-RAGE370-390: glutamine-to-alanine mutant of RAGE370-390 (GEERKAPENAEEEEERAELNQ; cytosolic tail peptide; UniProt Q15109 370-390, looked up, variant Q379A)	lost	
Q379K-RAGE370-390: glutamine-to-lysine mutant of RAGE370-390 (GEERKAPENKEEEEERAELNQ; cytoplasmic region peptide; UniProt Q15109 370-390, looked up, variant Q379K)	retain the greatest inhibitory effect	
Q390A-RAGE370-390: glutamine-to-alanine mutant of RAGE370-390 (GEERKAPENQEEEEERAELNA; cytoplasmic region peptide; UniProt Q15109 370-390, looked up, variant Q390A)	lost	
Q390K-RAGE370-390: glutamine-to-lysine mutant of RAGE370-390 (GEERKAPENQEEEEERAELNK; cytosolic tail peptide; UniProt Q15109 370-390, looked up, variant Q390K)	retain the greatest inhibitory effect	
RAGE22-404: full length wild-type RAGE construct	does not affect	
RAGE379-404: N-truncated RAGE construct, functional substitute of wild type RAGE (QEEEEERAELNQSEEPEAGESSTGGP; UniProt Q15109 379-404, looked up, fragment)		ability of the RAGE construct to be activated and mediate pro-inflammatory signalling in response to Ang II [1]: does not result in a loss of function; also recorded: able to be activated
RAGE385-404: N-truncated RAGE construct eliminating both 380 and 384 (RAELNQSEEPEAGESSTGGP; UniProt Q15109 385-404, looked up, fragment)		ability of the RAGE construct to be activated and mediate pro-inflammatory signalling in response to Ang II [1]: loss of the modulatory actions
S391A-RAGE22-404: full length RAGE construct with S391 mutated to alanine	able to prevent	
TNFα		canonical and non-canonical signalling downstream of NFκB (CXCL2, CXCL12) ([2]; PMAEC from C57bl6 mice): selectively induce canonical signalling
m-Cherry-RAGE370-395: C-truncated S391X-RAGE mutant fused to mCherry (GEERKAPENQEEEEERAELNQSEEPE; also: mCherry fusion, not in chain; UniProt Q15109 370-395, looked up, fragment)	prevents	
mCherry-S391A-RAGE362-404: N-truncated mCherry-RAGE cytosolic tail construct with S391A (LWQRRQRRGEERKAPENQEEEEERAELNQAEEPEAGESSTGGP; also: mCherry fusion; UniProt Q15109 362-404, looked up, fragment S391A)	able to prevent	
soluble RAGE22-331: decoy receptor with ligand-binding affinity [reference compound]		inhibition of Ang II (1 μM)-induced ICAM-1, VCAM-1 and MCP-1 ([2]; PMAEC from wild type mice): do not inhibit; inhibition of S100A8/A9-induced ICAM-1 ([2]; PMAEC from wild type mice): inhibit; inhibition of S100A8/A9-induced p65 expression [3]: inhibit

Reference: US12060408B2, “Screening assays, modulators and modulation of activation of Receptor for Advanced Glycation End-products (RAGE)” (Monash University, priority 2017, dated 2024)
